Measurements published in paper PMC5640651, “Interfering with the high-affinity interaction between wheat amylase trypsin inhibitor CM3 and toll-like receptor 4: in silico and biosensor-based studies” (Scientific Reports, 2017).

Key:
Settings in all cases: both partners purified
[1] = target: T1, human toll-like receptor 4, His-tagged (human, UniProt O00206 24-631); assay: SPR; IAsys plus resonant mirror biosensor; TLR4-His immobilised; 37 °C; 20 mM PBS, 25 mM NaCl
T1 construct: toll-like receptor 4, human; called the extracellular domain of TLR4 in the results; described as a 100 kDa protein with isoelectric point 5.88; Coupled covalently to the carboxylate cuvette by EDC/NHS 'via the N-terminus of the poly-His tail'; also called TLR4; TLR4-His; source: pEF-BOS TLR4 plasmid, transfected in HCT-116 cell line (author contributions)
T1 sequence (O00206 24-631): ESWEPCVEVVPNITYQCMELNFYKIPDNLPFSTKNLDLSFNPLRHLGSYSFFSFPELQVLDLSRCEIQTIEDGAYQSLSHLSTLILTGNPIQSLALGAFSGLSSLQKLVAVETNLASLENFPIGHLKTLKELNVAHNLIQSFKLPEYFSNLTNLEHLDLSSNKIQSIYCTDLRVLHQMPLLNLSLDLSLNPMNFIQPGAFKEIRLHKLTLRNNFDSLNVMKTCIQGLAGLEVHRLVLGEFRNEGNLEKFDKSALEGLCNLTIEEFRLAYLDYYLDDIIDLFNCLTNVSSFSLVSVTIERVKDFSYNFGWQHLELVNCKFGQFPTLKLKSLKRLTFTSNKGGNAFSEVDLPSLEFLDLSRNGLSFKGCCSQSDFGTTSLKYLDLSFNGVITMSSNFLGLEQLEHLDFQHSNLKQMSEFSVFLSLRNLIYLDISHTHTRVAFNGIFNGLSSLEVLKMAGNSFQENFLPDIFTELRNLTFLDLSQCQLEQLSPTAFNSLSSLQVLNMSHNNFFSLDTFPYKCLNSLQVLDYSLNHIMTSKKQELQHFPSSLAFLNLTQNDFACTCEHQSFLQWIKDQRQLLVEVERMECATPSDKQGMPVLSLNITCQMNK

[2] = target: T1, human toll-like receptor 4, His-tagged; assay: SPR; IAsys plus resonant mirror biosensor; TLR4-His immobilised; 37 °C; 20 mM PBS, 50 mM NaCl
[3] = target: T1, human toll-like receptor 4, His-tagged; assay: SPR; IAsys plus evanescent wave/resonant mirror biosensor (the paper calls it surface plasmon resonance); TLR4-His covalently immobilised on carboxylate cuvette; 37 °C; PBS pH 7.4 with 140 mM NaCl; mono-exponential fits
[4] = target: T1, human toll-like receptor 4, His-tagged; assay: as above; remark: listed apart in the source
[5] = target: T1, human toll-like receptor 4, His-tagged; assay: SPR; IAsys plus resonant mirror biosensor; TLR4-His immobilised; 37 °C; 20 mM PBS, no NaCl
[6] = target: T1, human toll-like receptor 4, His-tagged; assay: SPR; IAsys plus evanescent wave/resonant mirror biosensor (the paper calls it surface plasmon resonance); TLR4-His covalently immobilised on carboxylate cuvette; 37 °C; PBS pH 7.4 with 140 mM NaCl; mono-exponential fits; remark: listed apart in the source

Row | Kd [1] | koff [1] | kon [1] | Kd [2] | koff [2] | kon [2] | Kd [3] | stoichiometry N [3] | Kd [4] | koff [4] | kon [4] | Kd [5] | koff [5] | kon [5] | Kd [6] | koff [6] | kon [6] | Binder
1 | 10 nM | 0.0004 s⁻¹ | 39000 M⁻¹ s⁻¹ | 18 nM | 0.0007 s⁻¹ | 40000 M⁻¹ s⁻¹ | 36 nM | 1 | 61 nM | 0.0025 s⁻¹ | 41000 M⁻¹ s⁻¹ | 2.3 nM | 0.0001 s⁻¹ | 43000 M⁻¹ s⁻¹ | – | – | – | wheat amylase trypsin inhibitor CM3 (natural protein, UniProt P17314 26-168, looked up, also called ATI; wheat ATI CM3) SGSCVPGVAFRTNLLPHCRDYVLQQTCGTFTPGSKLPEWMTSASIYSPGKPYLAKLYCCQELAEISQQCRCEALRYFIALPVPSQPVDPRSGNVGESGLIDLPGCPREMQWDFVRLLVAPGQCNLATIHNVRYCPAVEQPLWI
2 | – | – | – | – | – | – | – | 1 | – | – | – | – | – | – | 1400 nM | 0.005 s⁻¹ | 3620 M⁻¹ s⁻¹ | RSGNVGESGLI (stretch of wheat ATI CM3; also called straight peptide; StrP; source: synthetic peptide) [RSGNVGESGLI oligopeptide derived from wheat ATI CM3]
